Results from article PMC5689134, “Detailed Analysis of Insulin Absorption Variability and the Tissue Response to Continuous Subcutaneous Insulin Infusion Catheter Implantation in Swine” (Diabetes Technology & Therapeutics, 2017).

Assay: Insulin lispro absorption PK after 5-U bolus through CSII catheters in swine
Format: in vivo
Conditions: for tmax (time-to-peak) / AUC60 (0-60 min after bolus) / Cmax (maximal plasma insulin level) / AUC (0-160 min after bolus, baseline subtracted): mean ± SD; for AUC60 (0-60 min after bolus) / Cmax (maximal plasma insulin level) / AUC (0-160 min after bolus, baseline subtracted): plasma ELISA
Description: We performed an observational study in six swine to evaluate the PK of insulin lispro (U-100 Humalog; Eli Lilly) infused through CSII catheters implanted for 5 days. Six commercial CSII catheters (CCs) and six investigational CSII catheters (ICs) were inserted into the subcutaneous tissue of each swine. Lispro insulin and saline were infused through the CCs and ICs for 5 days using battery powered insulin pumps and the same basal/bolus pattern of delivery. Additional CCs and ICs were filled with saline and capped (Supplementary Table S1; Supplementary Data are available online at www.liebertpub.com/dia). Insulin PK (Cmax, tmax, AUC, AUC60) following a 5-U bolus were evaluated on days 1, 3, and 5. The tissue surrounding the 72 CSII was excised and pathologically analyzed to elucidate the relationship between the PK of insulin absorption and the inflammatory tissue response to trauma and the CSII cannula.
The study was performed in six nondiabetic ambulatory female swine (68.5 ± 3.6 kg). The protocol was approved by the Institutional Animal Care & Use Committee of Thomas Jefferson University. […] The CVC ports were flushed every 1–3 days using a Huber needle and low-dose heparin solution. One week later, each swine was given general anesthesia and six CCs (Inset™; UnoMedical, Denmark) and six ICs were inserted into the subcutaneous tissue of the abdomen using an aseptic technique according to the manufacturer's instructions. In total, 72 CSII were implanted in six swine.
Two CCs and two ICs were connected to insulin pumps (OneTouch Ping; Animas Corporation, West Chester, PA) containing rapid acting lispro insulin. Two CCs and two ICs were connected to insulin pumps containing saline solution. […] CSII were secured with Tegaderm™ adhesive bandages and the eight insulin pumps were secured within the pockets of a custom vest (Lomir Biomedical, Inc., Supplementary Fig. S2). Insulin lispro was continuously infused through the four CSII catheters at a low basal rate (0.2 U/h/catheter = 0.8 U/h). Insulin and saline were infused using the same basal/bolus pattern throughout the 5-day study.
PK studies were performed on days 1, 3, and 5 after CSII insertion. On day 1, animals recovered from general anesthesia for ∼2 h before starting the PK study. Blood was sampled from a CVC every 10 min for ∼2 h, followed by every 15 min for 1 h before administering the second bolus and repeating the sampling schedule. When blood sample acquisition from a CVC was not possible, samples were obtained from the alternate CVC or occasionally omitted. The swine were able to stand up, lie down, and consume food (apples, biscuits) and water during the PK study. The concentration of blood glucose (BG) was measured in duplicate using the YSI analyzer. Samples were centrifuged to plasma and stored at −80°C for subsequent insulin assay. A stable baseline was established for ∼30 min (three to five BG values).
We then infused a 5-U bolus of insulin into a CC or an IC in a randomized order. The concentration of BG was maintained between 100 and 160 mg/dL by adjusting an intravenous infusion of 20% dextrose every 5–10 min for 3 h. A second baseline was then established for ∼30 min to ensure that BG levels have returned to baseline values after the morning insulin bolus, followed by a 5-U bolus of insulin infused into the alternate CSII catheter. The afternoon PK study ended ∼3 h later. Thus, two PK studies were performed on days 1, 3, and 5 in the same swine using the same CC and IC each day.
The concentration of lispro insulin was measured in plasma samples by PreClinOmics, Inc. (Indianapolis, IN) using a porcine insulin ELISA and an Iso-insulin ELISA (Mercodia AB, Uppsala, Sweden). The lispro insulin concentration was calculated by subtracting the porcine insulin from the total insulin concentration. […]

[1] = day 5, 5-U bolus via CC, Mean±SD of swine 2-6 (Table S4), SD
[2] = day 5, 5-U bolus via CC, individual animal: swine 2
[3] = day 5, 5-U bolus via CC, individual animal: swine 3
[4] = day 5, 5-U bolus via CC, individual animal: swine 4
[5] = day 5, 5-U bolus via CC, individual animal: swine 5
[6] = day 5, 5-U bolus via CC, individual animal: swine 6
[7] = day 5, 5-U bolus via IC (pump occlusion alarm during bolus), individual animal: swine 3
[8] = day 5, 5-U bolus via IC (pump occlusion alarm during bolus), individual animal: swine 4
[9] = day 5, 5-U bolus via IC (pump occlusion alarm during bolus), individual animal: swine 5
[10] = day 5, 5-U bolus via IC, Mean±SD of swine 1-6 (Table S4), SD
[11] = day 5, 5-U bolus via IC, individual animal: swine 1
[12] = day 5, 5-U bolus via IC, individual animal: swine 2
[13] = day 5, 5-U bolus via IC, individual animal: swine 6
[14] = swine, 5-U s.c. bolus via CC, day 1, n = 5, SD
[15] = swine, 5-U s.c. bolus via CC, day 3, n = 5, SD
[16] = swine, 5-U s.c. bolus via CC, day 5, n = 5, SD
[17] = swine, 5-U s.c. bolus via IC, day 1, n = 6, SD
[18] = swine, 5-U s.c. bolus via IC, day 3, n = 6, SD
[19] = swine, 5-U s.c. bolus via IC, day 5, n = 6, SD

Substance insulin lispro has a Cmax [1] of 114.66±30 mUL, a tmax [1] of 12.00 ± 4 min and a Cmax [2] of 113.43 mUL. For the same substance, the tmax [2] was 10 min, the AUC [3] was 119.45 mULh and the Cmax [3] was 116.16 mUL. The tmax [3] was 20 min, the AUC [4] was 57.25 mULh and the Cmax [4] was 156.62 mUL. For the same substance, the tmax [4] was 10 min, the AUC [5] was 48.26 mULh and the Cmax [5] was 115.52 mUL. It also gave a tmax [5] of 10 min, an AUC [6] of 54.47 mULh and a Cmax [6] of 71.56 mUL. The tmax [6] was 10 min, the AUC [7] was 54.83 mULh and the Cmax [7] was 85.06 mUL. For the same substance, the tmax [7] was 30 min, the AUC [8] was 100.49 mULh and the Cmax [8] was 269.32 mUL. For the same substance, the tmax [8] was 20 min, the AUC [9] was 57.08 mULh and the Cmax [9] was 131.09 mUL. For the same substance, the tmax [9] was 10 min, the AUC [10] was 40.96±38 mULh and the Cmax [10] was 105.08±88 mUL. The tmax [10] was 33.33 ± 19 min, the AUC [11] was 28.30 mULh and the Cmax [11] was 68.17 mUL. It also gave a tmax [11] of 60 min, an AUC [12] of 1.77 mULh and a Cmax [12] of 47.10 mUL. It also gave a tmax [12] of 50 min, an AUC [13] of 3.27 mULh and a Cmax [13] of 29.76 mUL. The tmax [13] was 30 min, the “Insulin absorption, range between animals” value (swine, 5-U bolus via IC, day 3, range over six ICs) was 9–132 mU/L*h and the “tmax (time-to-peak)” value [14] was 35.0 ± 17.3 min. For the same substance, the “AUC60 (0-60 min after bolus)” value [14] was 50.9 ± 12.9 mU/L·h, the “Cmax (maximal plasma insulin level)” value [14] was 90.7 ± 26.8 mU/L and the “tmax (time-to-peak)” value [15] was 20.0 ± 12.2 min. The “AUC60 (0-60 min after bolus)” value [15] was 47.0 ± 25.6 mU/L·h, the “AUC (0-160 min after bolus, baseline subtracted)” value [15] was 63.1 ± 22.8 mU/L*h and the “Cmax (maximal plasma insulin level)” value [15] was 73.9 ± 41.0 mU/L. The “AUC60 (0-60 min after bolus)” value [16] was 54.9 ± 20.8 mU/L·h, the “AUC (0-160 min after bolus, baseline subtracted)” value [16] was 71.1 ± 29.4 mU/L*h and the “Cmax (maximal plasma insulin level)” value [16] was 114.7 ± 30.1 mU/L. For the same substance, the “tmax (time-to-peak)” value [17] was 43.3 ± 28.8 min, the “AUC60 (0-60 min after bolus)” value [17] was 44.3 ± 23.2 mU/L·h and the “Cmax (maximal plasma insulin level)” value [17] was 120.0 ± 59.3 mU/L. For the same substance, the “tmax (time-to-peak)” value [18] was 20.0 ± 6.3 min, the “AUC60 (0-60 min after bolus)” value [18] was 42.7 ± 40.0 mU/L·h and the “AUC (0-160 min after bolus, baseline subtracted)” value [18] was 63.1 ± 51.8 mU/L*h. The “Cmax (maximal plasma insulin level)” value [18] was 115.0 ± 86.2 mU/L, the “AUC60 (0-60 min after bolus)” value [19] was 29.0 ± 31.3 mU/L·h and the “AUC (0-160 min after bolus, baseline subtracted)” value [19] was 40.1 ± 37.6 mU/L*h. The “Cmax (maximal plasma insulin level)” value [19] was 105.1 ± 87.7 mU/L, the “AUC (0-160 min after bolus, baseline subtracted)” value (swine, 5-U s.c. bolus via commercial CSII catheter (CC), day 1 of wear-time, n = 5 (AUC of swine 6 not calculable), SD) was 82.7 ± 37.6 mU/L*h and the “AUC (0-160 min after bolus, baseline subtracted)” value (swine, 5-U s.c. bolus via investigational CSII catheter (IC), day 1, n = 6, SD) was 68.5 ± 36.0 mU/L*h.
